Experimental data from the Human Domainome abundance scans (Beltran et al. 2025).
± gives the uncertainty stated by the source.

B1: Far upstream element-binding protein 3, residues 75 to 150; numbered along this chain, Q96I24 (parent)
chain: RTVITEEFKVPDKMVGFIIGRGGEQISRIQAESGCKIQIASESSGIPERPCVLTGTPESIEQAKRLLGQIVDRCRN

Variants of: B1
Experiment: abundance fitness (aPCA) (normalised: wild type 0, dead -1); higher = more abundant; growth selection in yeast, the domain comes from the species named
Conditions: Homo sapiens
G55D gave an abundance fitness of -0.905 ± 0.077. Variant G55T has an abundance fitness of -1.09 ± 0.078. G55V gave an abundance fitness of -1.38 ± 0.066. With P50H the abundance fitness was -0.04 ± 0.05. For P50E, the abundance fitness was -0.01 ± 0.031. In the case of P50D, the abundance fitness is reported as -0.079 ± 0.045. P50V showed an abundance fitness of -0.031 ± 0.03. Work on P50M yielded an abundance fitness of -0.04 ± 0.038. In the case of F8M, the abundance fitness is reported as -0.083 ± 0.045. Variant F8N has an abundance fitness of -0.353 ± 0.074. With F8P the abundance fitness was -0.651 ± 0.051. In the case of R75V, the abundance fitness is reported as 0.008 ± 0.035. With R75N the abundance fitness was -0.126 ± 0.081. Variant R75E has an abundance fitness of 0.047 ± 0.043. Work on R75W yielded an abundance fitness of 0.007 ± 0.034. R75G showed an abundance fitness of 0.038 ± 0.026. R75Q showed an abundance fitness of -0.026 ± 0.052. R73V showed an abundance fitness of -0.037 ± 0.033. Work on I37W yielded an abundance fitness of -0.955 ± 0.044. Work on I37K yielded an abundance fitness of -0.522 ± 0.046. I37N showed an abundance fitness of -0.69 ± 0.077. In the case of I37R, the abundance fitness is reported as -0.73 ± 0.03. Variant I37S has an abundance fitness of -0.658 ± 0.037. I37H gave an abundance fitness of -0.816 ± 0.087. In the case of S41Q, the abundance fitness is reported as 0.012 ± 0.041. S41K gave an abundance fitness of 0.058 ± 0.04. With S41W the abundance fitness was -0.159 ± 0.033. S41H gave an abundance fitness of -0.099 ± 0.089. Variant S41Y has an abundance fitness of -0.164 ± 0.069. With S41V the abundance fitness was -0.089 ± 0.03. With K13S the abundance fitness was -0.018 ± 0.031. In the case of K13E, the abundance fitness is reported as -0.032 ± 0.035. K13M gave an abundance fitness of -0.207 ± 0.042. K13T gave an abundance fitness of -0.073 ± 0.039. In the case of K13C, the abundance fitness is reported as -0.058 ± 0.041. In the case of Q62Y, the abundance fitness is reported as -0.096 ± 0.044. For Q62C, the abundance fitness was -0.011 ± 0.033. Work on A31T yielded an abundance fitness of -0.039 ± 0.038. With A31P the abundance fitness was -0.774 ± 0.048. With A31S the abundance fitness was -0.029 ± 0.032. R49T showed an abundance fitness of -0.044 ± 0.046. In the case of R49F, the abundance fitness is reported as -0.195 ± 0.058. R49C gave an abundance fitness of -0.091 ± 0.049. In the case of R49V, the abundance fitness is reported as -0.052 ± 0.03. In the case of R65T, the abundance fitness is reported as -0.014 ± 0.047. With R65W the abundance fitness was -0.069 ± 0.029. In the case of R65C, the abundance fitness is reported as -0.092 ± 0.043. V3M showed an abundance fitness of -0.037 ± 0.046. Work on V3N yielded an abundance fitness of 0.073 ± 0.093. With V3E the abundance fitness was -0.029 ± 0.035. V3G gave an abundance fitness of -0.166 ± 0.025. For V3W, the abundance fitness was -0.106 ± 0.035. In the case of V3Q, the abundance fitness is reported as -0.084 ± 0.043. Variant V3T has an abundance fitness of -0.098 ± 0.043. Variant V3K has an abundance fitness of -0.001 ± 0.05. Variant V3H has an abundance fitness of -0.155 ± 0.074. Work on V3D yielded an abundance fitness of -0.111 ± 0.049. Work on V3P yielded an abundance fitness of -0.117 ± 0.043. With S27L the abundance fitness was -0.075 ± 0.037. Work on S27R yielded an abundance fitness of 0.068 ± 0.029. For Q25K, the abundance fitness was -0.037 ± 0.047. Variant Q25P has an abundance fitness of -0.163 ± 0.041. Q25H gave an abundance fitness of -0.077 ± 0.057. Q25F gave an abundance fitness of -0.105 ± 0.082. Q25I gave an abundance fitness of -0.112 ± 0.069. With Q25C the abundance fitness was -0.025 ± 0.041. For E7F, the abundance fitness was 0.088 ± 0.05. In the case of E7G, the abundance fitness is reported as -0.083 ± 0.026. E7T gave an abundance fitness of -0.002 ± 0.042. Work on E7A yielded an abundance fitness of -0.078 ± 0.031. E7R gave an abundance fitness of -0.057 ± 0.027. In the case of I19E, the abundance fitness is reported as -0.081 ± 0.051. Work on I19L yielded an abundance fitness of -0.024 ± 0.033. I19Q gave an abundance fitness of -0.048 ± 0.041. I19G showed an abundance fitness of -0.102 ± 0.03. P11H showed an abundance fitness of -0.217 ± 0.066. For P11I, the abundance fitness was -0.297 ± 0.081. P11D gave an abundance fitness of -0.061 ± 0.056. For P11L, the abundance fitness was -0.236 ± 0.036. Work on P11A yielded an abundance fitness of -0.219 ± 0.033. Variant S33G has an abundance fitness of -0.747 ± 0.032. In the case of S33E, the abundance fitness is reported as -0.641 ± 0.048. For S33I, the abundance fitness was -0.358 ± 0.088. S33M showed an abundance fitness of -0.646 ± 0.052. Work on S33A yielded an abundance fitness of -0.138 ± 0.034. In the case of S33K, the abundance fitness is reported as -0.787 ± 0.081. In the case of G45P, the abundance fitness is reported as -0.067 ± 0.037. G45C showed an abundance fitness of -0.094 ± 0.037. With A40H the abundance fitness was -0.032 ± 0.058. Work on A40I yielded an abundance fitness of -0.036 ± 0.07. A40K gave an abundance fitness of -0.024 ± 0.037. Variant A40N has an abundance fitness of -0.076 ± 0.057. Variant N76M has an abundance fitness of -0.008 ± 0.077. With N76Y the abundance fitness was -0.027 ± 0.095. In the case of N76Q, the abundance fitness is reported as -0.145 ± 0.11. N76L showed an abundance fitness of -0.028 ± 0.049. With E48W the abundance fitness was -0.055 ± 0.032. E48S gave an abundance fitness of -0.043 ± 0.033. With E48M the abundance fitness was -0.048 ± 0.038. Work on E48A yielded an abundance fitness of -0.137 ± 0.031. For E48Q, the abundance fitness was -0.108 ± 0.04. Work on I46K yielded an abundance fitness of -0.003 ± 0.043. With I46D the abundance fitness was -0.061 ± 0.046. Work on I46V yielded an abundance fitness of -0.007 ± 0.029. I46E showed an abundance fitness of 0.063 ± 0.033. For I46Q, the abundance fitness was -0.007 ± 0.042. For I46T, the abundance fitness was 0.032 ± 0.043. I46L gave an abundance fitness of 0.018 ± 0.031. Variant I46R has an abundance fitness of -0.046 ± 0.027. I46F showed an abundance fitness of -0.023 ± 0.053. L53D gave an abundance fitness of -0.96 ± 0.13. L53K showed an abundance fitness of -1.12 ± 0.1. L53A gave an abundance fitness of -0.473 ± 0.045. Variant Q30G has an abundance fitness of -0.171 ± 0.025. With Q30M the abundance fitness was -0.097 ± 0.041. Q30N gave an abundance fitness of -0.369 ± 0.066. Variant Q69D has an abundance fitness of 0.021 ± 0.049. Variant Q69N has an abundance fitness of -0.059 ± 0.057. Variant Q69P has an abundance fitness of -0.156 ± 0.039. Q69C showed an abundance fitness of -0.076 ± 0.046. Variant Q69R has an abundance fitness of 0.005 ± 0.029. With G22E the abundance fitness was -0.044 ± 0.035. For I60F, the abundance fitness was -0.754 ± 0.076. Variant I60D has an abundance fitness of -0.972 ± 0.082. In the case of I60N, the abundance fitness is reported as -0.182 ± 0.07. I60T showed an abundance fitness of -0.223 ± 0.043. I60A gave an abundance fitness of -0.542 ± 0.037. Variant I70A has an abundance fitness of 0.05 ± 0.034. I70W showed an abundance fitness of -0.102 ± 0.035. Variant I70P has an abundance fitness of -0.335 ± 0.051. For I70H, the abundance fitness was -0.096 ± 0.055. With I70R the abundance fitness was -0.024 ± 0.028. T56G gave an abundance fitness of -0.232 ± 0.025. Variant T56C has an abundance fitness of -0.097 ± 0.04. T56P gave an abundance fitness of -0.094 ± 0.036. T56R showed an abundance fitness of -0.107 ± 0.027. With T56M the abundance fitness was -0.183 ± 0.038. T56E showed an abundance fitness of -0.08 ± 0.032. With E58P the abundance fitness was -0.108 ± 0.046. Variant E58F has an abundance fitness of -0.124 ± 0.086. For E58G, the abundance fitness was -0.047 ± 0.03. I26H gave an abundance fitness of -0.144 ± 0.052. With I26L the abundance fitness was -0.019 ± 0.032. In the case of I26Q, the abundance fitness is reported as -0.193 ± 0.039. For I26C, the abundance fitness was -0.21 ± 0.047. S59I showed an abundance fitness of -0.621 ± 0.13. Work on S59V yielded an abundance fitness of -0.284 ± 0.035. With S59H the abundance fitness was -0.221 ± 0.062. With S59R the abundance fitness was -0.141 ± 0.028. Variant S59E has an abundance fitness of -0.04 ± 0.043. S59K gave an abundance fitness of -0.161 ± 0.058. With S59W the abundance fitness was -0.999 ± 0.061. With E42I the abundance fitness was -0.139 ± 0.077. Variant E42N has an abundance fitness of -0.043 ± 0.065. With E42V the abundance fitness was -0.041 ± 0.032. Variant R1C has an abundance fitness of 0.032 ± 0.059. R1P showed an abundance fitness of -0.236 ± 0.1. For R1T, the abundance fitness was 0.028 ± 0.053. In the case of D12R, the abundance fitness is reported as -0.1 ± 0.028. D12W gave an abundance fitness of -0.255 ± 0.034. In the case of G23H, the abundance fitness is reported as -0.077 ± 0.067. With G23D the abundance fitness was -0.091 ± 0.044. V52D showed an abundance fitness of -0.16 ± 0.049. V52F gave an abundance fitness of -0.107 ± 0.061. Work on V52A yielded an abundance fitness of -0.029 ± 0.033. With V52I the abundance fitness was -0.034 ± 0.057. For V52R, the abundance fitness was -0.072 ± 0.029.
